Source: article PMC10540404

Key:
[1] = target: MHC-I (endogenous, mouse primary cortical neurons) (mouse (endogenous in primary cortical neurons)) (UniProt P01901); assay: co-IP; cultured mouse primary cortical neurons, with or without oligomeric Aβ; anti-mouse MHC-I antibody (2G5); endogenous MHC-I and NCAM1
[2] = target: single-chain trimer (SCT) of HLA-A2.1 (TAX-HLA-A2.1-hβM); assay: co-IP

UniProt P01901, sequence (P01901 22-369): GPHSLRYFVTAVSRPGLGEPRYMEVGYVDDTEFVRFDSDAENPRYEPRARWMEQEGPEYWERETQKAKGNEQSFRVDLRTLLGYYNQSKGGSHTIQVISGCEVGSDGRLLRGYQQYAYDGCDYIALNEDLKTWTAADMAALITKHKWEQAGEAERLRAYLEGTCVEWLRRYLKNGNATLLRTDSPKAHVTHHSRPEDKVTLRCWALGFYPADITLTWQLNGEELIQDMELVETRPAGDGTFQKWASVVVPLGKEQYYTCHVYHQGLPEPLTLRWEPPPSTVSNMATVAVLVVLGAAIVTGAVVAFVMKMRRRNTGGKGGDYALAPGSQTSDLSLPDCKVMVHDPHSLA

reduction of co-precipitated NCAM1 with Aβ treatment against control [1] | fold increase of the complex with Aβ treatment [2] | Substance
50% |  | NCAM1 (endogenous, mouse primary cortical neurons) (from UniProt P13595 20-1115) (natural protein)
 | 1.5 fold | NCAM1-hemagglutinin (HA) (from UniProt P13591 20-858) (natural protein)
